Reference: article PMC11099347 (Cell Genomics, 2024)

Molecular target: T1, GST-tagged wild-type NRDE2 (human, UniProt Q9H7Z3 1-1164)
T1 sequence: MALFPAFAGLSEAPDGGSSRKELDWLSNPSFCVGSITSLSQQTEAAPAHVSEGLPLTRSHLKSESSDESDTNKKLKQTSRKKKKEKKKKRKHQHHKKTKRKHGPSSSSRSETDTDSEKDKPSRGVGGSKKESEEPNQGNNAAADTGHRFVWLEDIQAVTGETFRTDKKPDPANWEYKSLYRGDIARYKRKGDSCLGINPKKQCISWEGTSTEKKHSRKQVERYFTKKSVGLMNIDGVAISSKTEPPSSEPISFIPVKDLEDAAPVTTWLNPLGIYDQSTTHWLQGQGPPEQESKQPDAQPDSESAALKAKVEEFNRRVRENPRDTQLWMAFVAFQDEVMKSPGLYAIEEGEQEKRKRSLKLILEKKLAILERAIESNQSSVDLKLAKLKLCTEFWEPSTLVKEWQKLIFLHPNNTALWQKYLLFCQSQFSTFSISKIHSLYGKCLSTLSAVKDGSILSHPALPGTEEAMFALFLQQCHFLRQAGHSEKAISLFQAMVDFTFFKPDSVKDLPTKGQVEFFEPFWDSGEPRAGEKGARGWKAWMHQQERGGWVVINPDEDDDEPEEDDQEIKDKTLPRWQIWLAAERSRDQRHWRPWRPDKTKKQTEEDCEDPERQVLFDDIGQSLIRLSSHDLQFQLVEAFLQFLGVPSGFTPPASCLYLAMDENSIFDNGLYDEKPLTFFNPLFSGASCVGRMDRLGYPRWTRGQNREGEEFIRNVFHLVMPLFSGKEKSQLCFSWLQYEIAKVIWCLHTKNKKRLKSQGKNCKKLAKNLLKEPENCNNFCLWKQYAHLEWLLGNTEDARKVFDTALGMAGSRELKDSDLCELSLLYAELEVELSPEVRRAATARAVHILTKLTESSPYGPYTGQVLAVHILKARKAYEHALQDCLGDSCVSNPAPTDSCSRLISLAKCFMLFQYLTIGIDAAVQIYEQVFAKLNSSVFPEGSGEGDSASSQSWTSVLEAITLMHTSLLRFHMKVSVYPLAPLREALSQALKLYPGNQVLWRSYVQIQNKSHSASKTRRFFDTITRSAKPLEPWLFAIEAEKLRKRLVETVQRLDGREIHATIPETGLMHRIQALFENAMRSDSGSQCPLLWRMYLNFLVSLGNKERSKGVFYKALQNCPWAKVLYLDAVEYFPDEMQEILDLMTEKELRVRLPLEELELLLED
Test: pull-down

B1: His-tagged CK2B (natural protein)
chain: not shown
binding result: binds

B2: His-tagged CK2A2 (natural protein)
chain: MPGPAAGSRARVYAEVNSLRSREYWDYEAHVPSWGNQDDYQLVRKLGRGKYSEVFEAINITNNERVVVKILKPVKKKKIKREVKILENLRGGTNIIKLIDTVKDPVSKTPALVFEYINNTDFKQLYQILTDFDIRFYMYELLKALDYCHSKGIMHRDVKPHNVMIDHQQKKLRLIDWGLAEFYHPAQEYNVRVASRYFKGPELLVDYQMYDYSLDMWSLGCMLASMIFRREPFFHGQDNYDQLVRIAKVLGTEELYGYLKKYHIDLDPHFNDILGQHSRKRWENFIHSENRHLVSPEALDLLDKLLRYDHQQRLTAKEAMEHPYFYPVVKEQSQPCADNAVLSSGLTAAR
binding result: binds
